{
  "source": "patent US20210041458A1",
  "about": "“Lectin Assay For Assessing Glycoforms As An Early Marker In Disease” (Baruch S. Blumberg Institute, priority 2009, published 2021)",
  "molecules": {"B1": {"name": "N224Q: mutant Aleuria aurantia lectin with N224 changed to glutamine (protein, UniProt P18891 2-313, looked up, variant N224Q)", "Fucose-specific lectin": "PTEFLYTSKIAAISWAATGGRQQRVYFQDLNGKIREAQRGGDNPWTGGSSQNVIGEAKLFSPLAAVTWKSAQGIQIRVYCVNKDNILSEFVYDGSKWITGQLGSVGVKVGSNSKLAALQWGGSESAPPNIRVYYQKSNGSGSSIHEYVWSGKWTAGASFGSTVPGTGIGATAIGPGRLRIYYQATDNKIREHCWDSNSWYVGGFSASASAGVSIAAISWGSTPQIRVYWQKGREELYEAAYGGSWNTPGQIKDASRPTPSLPDTFIAANSSGNIDISVFFQASGVSLQQWQWISGKGWSIGAVVPTGTPAGW", "modifications": "10xHis tag", "notes": "mutant Aleuria aurantia lectin with N224 changed to glutamine"}, "B2": {"name": "commercial (Vector) AAL: untagged, commercially purchased AAL (Vector), eluted with L-fucose in manufacture (protein, UniProt P18891 2-313, looked up)", "Fucose-specific lectin": "B1 Fucose-specific lectin with Q224N"}, "B3": {"name": "AAL M1(N129Q): recombinant 10× His-tagged mutant Aleuria aurantia lectin with N129 changed to glutamine (protein, UniProt P18891 2-313, looked up, variant N129Q)", "Fucose-specific lectin": "B1 Fucose-specific lectin with N129Q, Q224N", "modifications": "10xHis tag", "notes": "recombinant 10× His-tagged mutant Aleuria aurantia lectin with N129 changed to glutamine"}, "B4": {"name": "AAL: 312 amino acid lectin with five binding sites for L-fucose or L-fucose-linked oligosaccharides (protein, UniProt P18891 2-313, looked up)", "Fucose-specific lectin": "B1 Fucose-specific lectin with Q224N"}, "B5": {"name": "rAAL (N129Q, N224Q): recombinant 10×-His tagged mutant AAL with both N129Q and N224Q (protein, UniProt P18891 2-313, looked up, variant N129Q N224Q)", "Fucose-specific lectin": "B1 Fucose-specific lectin with N129Q", "modifications": "10xHis tag", "notes": "recombinant 10×-His tagged mutant AAL with both N129Q and N224Q"}, "B6": {"name": "rAAL: recombinant AAL produced in and isolated from bacteria using nickel affinity chromatography (protein, UniProt P18891 2-313, looked up)", "Fucose-specific lectin": "B1 Fucose-specific lectin with Q224N", "modifications": "His tag"}, "B7": {"name": "rAAL 10×: unbiotinylated recombinant 10×-His tagged wild-type AAL (protein, UniProt P18891 2-313, looked up)", "Fucose-specific lectin": "B1 Fucose-specific lectin with Q224N", "modifications": "10xHis tag", "notes": "unbiotinylated recombinant 10×-His tagged wild-type AAL"}},
  "key": {"[1]": {"assay": "Selectivity for fucose linkage", "type": "binding"}, "IgG0 ligand [2]": {"tested_on": "IgG0 ligand", "assay": "Competition (indirect) ELISA: unbiotinylated AAL proteins against biotinylated AAL binding to IgG0 in serum", "set-up": "species or system human", "conditions": "for decrease in signal output versus control: compared with commercial (Vector) AAL", "description": "96 well plates are coated with sodium periodate (NaIO4) treated mouse IgG (1.0 ug/well). 3 ul of serum from a patient with cirrhosis (Gish 342) or serum from normal donors (Sigma) were diluted to 100 ul and added to antibody coated wells. Plates are washed and then incubated at room temperature for 30 minutes/shaking with equivalent amounts of either unbiotinylated commercial (Vector) AAL, unbiotinylated recombinant 10×-His tagged (rAAL 10×), or unbiotinylated recombinant 10×-His tagged mutant AAL (rAAL N129Q, N224Q)). Equivalent amounts of biotinylated AAL was then added to each well and incubated for 1 hour at room temperature/shaking. Plates are washed and incubated with streptavidin-800-IRDye as previously described. Plates are washed and fluorescence quantified using a LiCor Odyssey machine. Control samples measured biotinylated AAL binding to IgG0 in the absence of unbiotinylated AAL.\nCompetition experiments provide an indirect ELISA for measuring the ability of unbiotinylated commercial (Vector) and unbiotinylated rAAL proteins to interfere with binding of biotinylated AAL to the IgG0 ligand. It is a qualitative indication of the relative affinities of the untagged AAL proteins for the IgG0 ligand."}, "IgG0 ligand [3]": {"tested_on": "IgG0 ligand", "assay": "IgG0 ligand binding to AAL proteins coated on nickel NTA plates, fluorescence readout", "set-up": "species or system human", "conditions": "FIG. 2", "description": "Equal amounts of recombinant AAL (wild type or mutants) containing 10× Histidine tags were coated to nickel NT A plates and incubated with increasing amounts of IgG0 ligand (X axis). Un tagged, commercially purchased AAL (AAL-V) was also coated to nickel NT A plates or on high affinity binding ELISA plates (AAL-Vc) and incubated with increasing amounts of IgG0 ligand. Plates were washed and incubated with fluorescently tagged anti-human lgG, washed and read in a fluorescence detector. Increasing relative fluorescence indicates higher binding affinity."}, "[4]": {"conditions": "multivalent; compared to other lectins; cited from earlier work"}, "[5]": {"assay": "Surface plasmon resonance, tryptophan fluorescence and enzyme linked lectin assays", "type": "binding", "conditions": "rAAL from bacteria, isolated by nickel affinity chromatography", "description": "Quantitative equilibrium binding of mutant and wild-type AAL for the selection ligand and other L-fucopyranosyl oligosaccharides are determined by BIAcore analysis and enzyme linked lectin assays (Oiausson et al)."}, "[6]": {"conditions": "serum from a cirrhotic patient (Gish 342), FIG. 3"}},
  "note": "Positions count from the first letter of the chain named. Names may count otherwise. “Also recorded” adds a separate entry of the source.",
  "data": [
    {"molecule": "B1", "values": [
      {"measurement": "selectivity for the 1-6 linkage against outerarm linkages", "setting": "[1]", "result": "more selective for the 1-6 linkage than outerarm"}
    ]},
    {"molecule": "B2", "values": [
      {"measurement": "signal output", "setting": "IgG0 ligand [2]; serum from a cirrhotic patient (Gish 342), control ~35, FIG. 3", "result": "~20"}
    ]},
    {"molecule": "B3", "values": [
      {"measurement": "Limit of Detection", "setting": "IgG0 ligand [3]; IgG0 ligand", "result": 10, "unit": "ng/mL"},
      {"measurement": "improvement of the Limit of Detection", "setting": "IgG0 ligand [3]; IgG0 ligand", "result": "10-100 fold"},
      {"measurement": "signal to noise ratio", "setting": "IgG0 ligand [3]; increasing IgG0 ligand", "result": "highest signal to noise ratio"}
    ]},
    {"molecule": "B4", "values": [
      {"measurement": "binding affinity for carbohydrate ligands", "setting": "[4]", "result": "micromolar; also recorded: micrormolar"}
    ]},
    {"molecule": "B5", "values": [
      {"measurement": "decrease in signal output versus control", "setting": "IgG0 ligand [2]; [6]", "result": "greater decreases in signal output versus control"}
    ]},
    {"molecule": "B6", "values": [
      {"measurement": "binding affinities for fucosylated oligosaccharides compared with commercially prepared AAL", "setting": "[5]", "result": "substantially higher binding affinities"},
      {"measurement": "affinity for the IgG0 ligand compared with commercially available AAL", "setting": "IgG0 ligand [2]; Example 1", "result": "higher affinity"},
      {"measurement": "affinity in cirrhotic patients compared with controls", "setting": "IgG0 ligand [2]; serum samples, FIG. 3", "result": "significantly higher affinity"}
    ]},
    {"molecule": "B7", "values": [
      {"measurement": "decrease in signal output versus control", "setting": "IgG0 ligand [2]; [6]", "result": "greater decreases in signal output versus control"}
    ]}
  ]
}
